Source: publication PMC4745047, “Tuned by metals: the TET peptidase activity is controlled by 3 metal binding sites” (Scientific Reports, 2016)

What was measured:
[1] = biological target: T1, PfTET3 (TET3 aminopeptidase; PfTET3Zn) (Pyrococcus furiosus, UniProt Q8TZW4); experiment: Lys-pNA hydrolysis, pNA release at […] nm, EDTA titration, biphasic fit; assay type: biochemical; settings: 85 °C; 5 mM Lys-pNA; 0.1 M HEPES pH 7.2, 316 mM KCl; 10 nM enzyme; metal chelation (M1 Zn2+ removal), not direct binding; first site of two; partial step; read-out: EC50_1
T1 construct: gene PF1861; Recombinant, pET-41c; purified as for PhTET3; homododecamer (about 500 kDa); as purified contains two Zn2+ per active site
T1 sequence (Q8TZW4 1-346): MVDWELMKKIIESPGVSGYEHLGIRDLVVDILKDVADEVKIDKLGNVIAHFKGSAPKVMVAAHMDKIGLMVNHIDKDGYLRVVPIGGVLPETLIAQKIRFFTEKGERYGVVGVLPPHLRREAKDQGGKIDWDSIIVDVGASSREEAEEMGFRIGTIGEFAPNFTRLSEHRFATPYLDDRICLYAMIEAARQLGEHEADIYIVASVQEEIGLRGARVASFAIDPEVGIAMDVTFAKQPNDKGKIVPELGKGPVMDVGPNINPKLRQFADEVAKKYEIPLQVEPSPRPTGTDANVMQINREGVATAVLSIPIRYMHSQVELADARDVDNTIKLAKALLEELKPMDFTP

Glu207 = Glu207 (UniProt position 207, VASVQEEIGLR); experiment: kinetics; settings: not given for the pH series (standard assay: KCl 316 mM), not given for the pH series (standard assay: 0.1 M HEPES pH 7.2)

Row | Molecule | EC50 [1] | pKa (Glu207; 20 °C, PfTET3Co: 300 uM Co2+ present (Co2+ in M1 and M3, Zn2+ in M2)) | pKa (Glu207; 20 °C, PfTET3Zn: as purified, Zn2+ in M1 and M2, no Co2+ added) | pKa (Glu207; 85 °C, PfTET3Co: 300 uM Co2+ present (Co2+ in M1 and M3, Zn2+ in M2)) | pKa (Glu207; 85 °C, PfTET3Zn: as purified, Zn2+ in M1 and M2, no Co2+ added)
1 | O=C(O)CN(CCN(CC(=O)O)CC(=O)O)CC(=O)O [EDTA] | 13 µM | – | – | – | –
2 | TET3 aminopeptidase (PfTET3; lysine-specific tetrahedral aminopeptidase) (Pyrococcus furiosus) | – | 5.6 | 5.9 | 4.45 | 4.75
